Numbering of substitutions follows the chain as printed. Blank lines part the entries; values can stand above or below the binder they belong to.
Key:
[1] = target: T1, His-tagged soluble cynomolgus monkey CTLA-4 (cynomolgus monkey); test: BIACORE, His-tagged soluble cyno CTLA-4 captured on anti-PentaHis, binder passed over at 12.5-200 nM; avidity by separate ka/kd 1:1 fit
T1 construct: extracellular domain; also called Cyno CTLA-4
Description: (§1) Briefly, His-tagged soluble CTLA-4 (an extracellular portion of human or cynomolgus monkey CTLA-4 fused to a histidine-containing peptide) was captured on immobilized anti-PentaHis and then different concentrations (12.5-200 nM) of the CTLA-4 binding molecules were passed over the immobilized CTLA-4 proteins. The kinetics of binding were determined via BIACORE® analysis (affinity by 1:1 Langmuir binding model (simultaneous ka/kd); or avidity by separate ka/kd 1:1 fit).

hPD-1-His [2] = target: T2, hPD-1-His (human, UniProt Q15116 25-170, limits assumed); test: competition ELISA: plate coated with shPD-1 and irrelevant antigen 1:1 (2 ug/ml each); blocked ligand biotin-labeled PD-L1 6 ug/ml, streptavidin-HRP, RLU
T2 construct: also called His-tagged soluble human PD-1; shPD-1
Description: (§2) A series of ELISA assays were conducted to evaluate the ability of bispecific molecules of the invention to block ligand binding to PD-1 and […], alone and in combination. […] Plates were coated with a 1:1 mix of His-tagged soluble human PD-1 (shPD-1) and a His-tagged irrelevant antigen (irrAg) (2 μg/ml each), or a 1:1 mix of shPD-1 and a His-tagged soluble human CTLA-4 (shCTLA-4) (2 μg/ml each).

[3] = target: T3, cynomolgus monkey CTLA-4 expressed on CHO cells (cynomolgus monkey, UniProt G7PL88 36-223); test: flow cytometry on CHO cells expressing cynomolgus monkey CTLA-4, anti-human Fc secondary antibody, GMFI
T3 construct: also called cynoCTLA-4
T3 sequence: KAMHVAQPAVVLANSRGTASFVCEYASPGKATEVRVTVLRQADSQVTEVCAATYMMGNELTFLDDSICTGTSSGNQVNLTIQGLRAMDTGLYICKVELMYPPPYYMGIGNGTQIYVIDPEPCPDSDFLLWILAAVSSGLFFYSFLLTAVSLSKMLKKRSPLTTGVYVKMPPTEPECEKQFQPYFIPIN

[4] = target: T4, human CTLA-4 expressed on the cell surface (human, UniProt P16410 36-223); test: flow cytometry on CHO cells expressing human CTLA-4, anti-human Fc secondary antibody, GMFI
T4 construct: also called huCTLA-4; CHO cells expressing human CTLA-4
T4 sequence: T3 sequence with N14S, T18I, M106L

hPD-1-His [5] = target: T2, hPD-1-His; test: ELISA: shPD-1-his coated, detection goat anti-human Fc-gamma-HRP 1:10000, chemiluminescence RLU
Source text: (§3) FIGS. 8A-8D show the results of ELISA studies measuring the binding of serially diluted binding molecules to human CTLA-4 and human PD-1. […] Goat anti-human-Fc-HRP (1:10,000) was employed as the secondary detection molecule to detect binding. FIGS. 8C-8D show the results of a study on the effect of altering orientations and binding domains on binding. […] Goat anti-human-Fcγ-HRP was employed as the secondary detection molecule to detect binding using PICO chemiluminescent substrate.

[6] = target: T4, human CTLA-4 expressed on the cell …; test: cell-based competition: blocked ligand His-B7-2 116.8 ng/ml binding to CTLA-4 Jurkat cells, detected with anti-His antibody, GMFI-APC
[7] = target: T5, PD-1 expressed on the cell surface (human, UniProt Q15116 21-288); test: cell-based competition (FACS): blocked ligand PD-L2-PE binding to NSO-PD-1 cells, MFI
T5 construct: also called NSO cells expressing PD-1; NSO-PD-1 cells

[8] = target: T5, PD-1 expressed on the cell surface; test: cell-based competition (FACS): blocked ligand PD-L1-PE binding to NSO-PD-1 cells, MFI
[9] = target: T5, PD-1 expressed on the cell surface; test: flow cytometry on NSO cells expressing PD-1 but not CTLA-4, MFI (APC)
[10] = target: T4, human CTLA-4 expressed on the cell …; test: cell-based competition: blocked ligand His-B7-1 10 ng/ml binding to CTLA-4 Jurkat cells, detected with anti-His antibody, GMFI-APC
soluble hCTLA-4-Avi-His = target: T6, soluble hCTLA-4-Avi-His (human, UniProt P16410 36-161); test: ELISA: shCTLA-4-Avi-His coated at 1 ug/mL, detection goat anti-human Fc-gamma-HRP 1:10000, chemiluminescence RLU
T6 construct: also called soluble human CTLA-4-Avi-His
T6 sequence: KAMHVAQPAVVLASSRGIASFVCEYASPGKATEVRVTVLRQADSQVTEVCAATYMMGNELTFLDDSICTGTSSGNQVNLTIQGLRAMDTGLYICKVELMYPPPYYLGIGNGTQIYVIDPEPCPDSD
Source text: as §3

[11] = target: T1, His-tagged soluble cynomolgus monkey …; test: BIACORE, His-tagged soluble cyno CTLA-4 captured on anti-PentaHis, binder passed over at 12.5-200 nM; affinity by 1:1 Langmuir binding model
Description: as §1

[12] = target: T7, His-tagged soluble human CTLA-4 (human, UniProt P16410 36-161); test: competition ELISA: plate coated with shCTLA-4 and shPD-1 1:1 (2 ug/ml each); blocked ligand biotin-labeled B7-1 0.2 ug/ml, streptavidin-HRP, RLU
T7 construct: also called shCTLA-4
T7 sequence: T6 sequence
Description: (§4) Plates were coated with a 1:1 mix of shCTLA-4 and irrAg (2 μg/ml each), a 1:1 mix of shCTLA-4 shPD-1 (2 μg/ml each), or a 1:4 mix of shCTLA-4 (0.8 μg/ml) and shPD-1 (3.2 μg/ml).

[13] = target: T7, His-tagged soluble human CTLA-4; test: competition ELISA: plate coated with shCTLA-4 0.8 ug/ml and shPD-1 3.2 ug/ml (1:4); blocked ligand biotin-labeled B7-1 0.2 ug/ml, streptavidin-HRP, RLU
Description: as §4

hPD-1-His [14] = target: T2, hPD-1-His; test: competition ELISA: plate coated with shPD-1 and shCTLA-4 1:1 (2 ug/ml each); blocked ligand biotin-labeled PD-L1 6 ug/ml, streptavidin-HRP, RLU
Description: as §2

- IC50 (read off the curve) (hPD-1-His [2]): ~0.8 nM
- EC50 (read off the curve) [3]: ~2 nM
- EC50 (read off the curve) [4]: ~2 nM
- EC50 (read off the curve) (hPD-1-His [5]): ~0.5 nM
- IC50 (read off the curve) [6]: ~5 nM
- IC50 (read off the curve) [7]: ~1 nM
- IC50 (read off the curve) [8]: ~0.8 nM
- EC50 (read off the curve) [9]: ~1 nM
- Kd [1]: 4.9 nM
- IC50 (read off the curve) [10]: ~4 nM
B2: DART D (bispecific antibody, human IgG4 S228P)
chain 1: EIVLTQSPATLSLSPGERATLSCRASESVDNYGMSFMNWFQQKPGQPPKLLIHAASNQGSGVPSRFSGSGSGTDFTLTISSLEPEDFAVYFCQQSKEVPYTFGGGTKVEIKGGGSGGGGQVQLVESGGGVVQPGRSLRLSCAASGFTFSSYTMHWVRQAPGKGLEWVTFISYDGSNKHYADSVKGRFTVSRDNSKNTLYLQMNSLRAEDTAIYYCARTGWLGPFDYWGQGTLVTVSSGGCGGGEVAACEKEVAALEKEVAALEKEVAALEKESKYGPPCPPCPAPEFLGGPSVFLFPPKPKDTLYITREPEVTCVVVDVSQEDPEVQFNWYVDGVEVHNAKTKPREEQFNSTYRVVSVLTVLHQDWLNGKEYKCKVSNKGLPSSIEKTISKAKGQPREPQVYTLPPSQEEMTKNQVSLTCLVKGFYPSDIAVEWESNGQPENNYKTTPPVLDSDGSFFLYSRLTVDKSRWQEGNVFSCSVMHEALHNHYTQKSLSLSLG
chain 2: not shown
notes: Four-chain Fc diabody, PD-1 mAb 6-ISQ x CTLA-4 mAb 3, IgG4 (YTE), E/K-coils

- IC50 (read off the curve) (hPD-1-His [2]): ~1 nM
- Kd [11]: 260 nM
- IC50 (read off the curve) [12]: ~10 nM
- IC50 (read off the curve) [13]: ~3 nM
- IC50 (read off the curve) (hPD-1-His [14]): ~1 nM
- IC50 (read off the curve) [7]: ~1 nM
- IC50 (read off the curve) [8]: ~0.8 nM
B5: TRIDENT A (bispecific antibody, human IgG4 S228P, kappa)
chain 1: EIVLTQSPATLSLSPGERATLSCRASESVDNYGMSFMNWFQQKPGQPPKLLIHAASNQGSGVPSRFSGSGSGTDFTLTISSLEPEDFAVYFCQQSKEVPYTFGGGTKVEIKGGGSGGGGQVQLVQSGAEVKKPGASVKVSCKASGYSFTSYWMNWVRQAPGQGLEWIGVIHPSDSETWLDQKFKDRVTITVDKSTSTAYMELSSLRSEDTAVYYCAREHYGTSPFAYWGQGTLVTVSSGGCGGGEVAACEKEVAALEKEVAALEKEVAALEKESKYGPPCPPCPAPEFLGGPSVFLFPPKPKDTLYITREPEVTCVVVDVSQEDPEVQFNWYVDGVEVHNAKTKPREEQFNSTYRVVSVLTVLHQDWLNGKEYKCKVSNKGLPSSIEKTISKAKGQPREPQVYTLPPSQEEMTKNQVSLWCLVKGFYPSDIAVEWESNGQPENNYKTTPPVLDSDGSFFLYSRLTVDKSRWQEGNVFSCSVMHEALHNHYTQKSLSLSLG
chain 2: EIVLTQSPATLSLSPGERATLSCRASESVDNYGMSFMNWFQQKPGQPPKLLIHAASNQGSGVPSRFSGSGSGTDFTLTISSLEPEDFAVYFCQQSKEVPYTFGGGTKVEIKGGGSGGGGQVQLVQSGAEVKKPGASVKVSCKASGYSFTSYWMNWVRQAPGQGLEWIGVIHPSDSETWLDQKFKDRVTITVDKSTSTAYMELSSLRSEDTAVYYCAREHYGTSPFAYWGQGTLVTVSSGGCGGGKVAACKEKVAALKEKVAALKEKVAALKE
chain 3: QVQLVESGGGVVQPGRSLRLSCAASGFTFSSYTMHWVRQAPGKGLEWVTFISYDGSNKHYADSVKGRFTVSRDNSKNTLYLQMNSLRAEDTAIYYCARTGWLGPFDYWGQGTLVTVSSASTKGPSVFPLAPCSRSTSESTAALGCLVKDYFPEPVTVSWNSGALTSGVHTFPAVLQSSGLYSLSSVVTVPSSSLGTKTYTCNVDHKPSNTKVDKRVESKYGPPCPPCPAPEFLGGPSVFLFPPKPKDTLYITREPEVTCVVVDVSQEDPEVQFNWYVDGVEVHNAKTKPREEQFNSTYRVVSVLTVLHQDWLNGKEYKCKVSNKGLPSSIEKTISKAKGQPREPQVYTLPPSQEEMTKNQVSLSCAVKGFYPSDIAVEWESNGQPENNYKTTPPVLDSDGSFFLVSRLTVDKSRWQEGNVFSCSVMHEALHNRYTQKSLSLSLG
chain 4: not shown
notes: Four-chain trivalent molecule: two PD-1 sites (PD-1 mAb 6-ISQ, diabody type), one CTLA-4 site (CTLA-4 mAb 3, Fab type), knob/hole IgG4 (YTE)

Further lines, the binder ahead of its results:

B1: CTLA-4 mAb 1 (antibody, IgG1, V domains shown)
VH: QVQLVESGGGVVQPGRSLRLSCAASGFTFSSYTMHWVRQAPGKGLEWVTFISYDGNNKYYADSVKGRFTISRDNSKNTLYLQMNSLRAEDTAIYYCARTGWLGPFDYWGQGTLVTVSS
VL: not shown
notes: IgG1, natural antibody structure; also called ipilimumab replica
- Kd [1]: 1.3 nM

B3: DART B (bispecific antibody)
chain 1: not shown
chain 2: EIVLTQSPATLSLSPGERATLSCRASESVDNYGMSFMNWFQQKPGQPPKLLIHAASNQGSGVPSRFSGSGSGTDFTLTISSLEPEDFAVYFCQQSKEVPYTFGGGTKVEIKGGGSGGGGQVQLVESGGGVVQPGRSLRLSCAASGFTFSSYTMHWVRQAPGKGLEWVTFISYDGNNKYYADSVKGRFTISRDNSKNTLYLQMNSLRAEDTAIYYCARTGWLGPFDYWGQGTLVTVSSGGCGGGKVAACKEKVAALKEKVAALKEKVAALKE
notes: Four-chain Fc diabody, PD-1 mAb 6-ISQ x CTLA-4 mAb 1, IgG4 (YTE), E/K-coils; two sites for PD-1 and two for CTLA-4
- EC50 (read off the curve) (hPD-1-His [5]): ~0.5 nM

B4: DART C (bispecific antibody)
chain 1: not shown
chain 2: B3 chain 2 with N175S, Y178H, I189V
notes: Four-chain Fc diabody, CTLA-4 mAb 3 x PD-1 mAb 6-ISQ, IgG4 Fc, E/K-coils
- EC50 (read off the curve) (soluble hCTLA-4-Avi-His): ~0.4 nM
- EC50 (read off the curve) (hPD-1-His [5]): ~0.5 nM

— US20210130470A1 (MacroGenics, published 2021)
